The target in test [1] is IGF receptors (Homo sapiens, UniProt P08069). In words: Competition binding of refolded IGF fusion proteins to IGF receptors against radioactive wild type IGF (Example 2). Conditions: refolded 3 hours at room temperature, read-out: approximate binding constants (KDs). As for the experimental part: 2 ml of each of the original Ni eluates from Example 1 was mixed with about an equal volume of 100 mM glycine, 6 M urea, pH 9.5, concentrated by ultrafiltration in a CENTRICON 3 kDa filter unit, then brought up again in that buffer and concentrated to about 420 ul. Then they were diluted to 2 mg/ml for 403IGF, 764IGF, and 765IGF, and 4 mg/ml for 784IGF and 2.4 mg/ml for 785IGF.
Sequence of IGF receptors (P08069 31-736 limits assumed): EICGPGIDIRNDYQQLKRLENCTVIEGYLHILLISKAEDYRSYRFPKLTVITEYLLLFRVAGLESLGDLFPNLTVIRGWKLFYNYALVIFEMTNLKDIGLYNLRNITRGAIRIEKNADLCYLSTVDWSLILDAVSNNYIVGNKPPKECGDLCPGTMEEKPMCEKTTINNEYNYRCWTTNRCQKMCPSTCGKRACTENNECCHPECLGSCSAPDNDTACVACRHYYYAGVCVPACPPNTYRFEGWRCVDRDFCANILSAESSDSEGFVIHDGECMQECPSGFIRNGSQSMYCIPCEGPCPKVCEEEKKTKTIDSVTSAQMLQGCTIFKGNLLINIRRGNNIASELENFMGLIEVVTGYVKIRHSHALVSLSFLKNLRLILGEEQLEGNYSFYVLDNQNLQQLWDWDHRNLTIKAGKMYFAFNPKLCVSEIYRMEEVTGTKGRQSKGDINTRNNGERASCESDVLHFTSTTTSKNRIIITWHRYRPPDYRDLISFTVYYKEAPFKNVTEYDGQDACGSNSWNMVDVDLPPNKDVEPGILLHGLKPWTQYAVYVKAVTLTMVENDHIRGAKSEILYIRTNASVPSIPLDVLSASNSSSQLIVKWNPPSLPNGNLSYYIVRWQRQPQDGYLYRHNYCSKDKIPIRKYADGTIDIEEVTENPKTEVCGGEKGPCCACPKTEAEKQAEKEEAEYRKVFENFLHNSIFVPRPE
Sequence of IGF receptors (P08069 741-1367 partner limits assumed): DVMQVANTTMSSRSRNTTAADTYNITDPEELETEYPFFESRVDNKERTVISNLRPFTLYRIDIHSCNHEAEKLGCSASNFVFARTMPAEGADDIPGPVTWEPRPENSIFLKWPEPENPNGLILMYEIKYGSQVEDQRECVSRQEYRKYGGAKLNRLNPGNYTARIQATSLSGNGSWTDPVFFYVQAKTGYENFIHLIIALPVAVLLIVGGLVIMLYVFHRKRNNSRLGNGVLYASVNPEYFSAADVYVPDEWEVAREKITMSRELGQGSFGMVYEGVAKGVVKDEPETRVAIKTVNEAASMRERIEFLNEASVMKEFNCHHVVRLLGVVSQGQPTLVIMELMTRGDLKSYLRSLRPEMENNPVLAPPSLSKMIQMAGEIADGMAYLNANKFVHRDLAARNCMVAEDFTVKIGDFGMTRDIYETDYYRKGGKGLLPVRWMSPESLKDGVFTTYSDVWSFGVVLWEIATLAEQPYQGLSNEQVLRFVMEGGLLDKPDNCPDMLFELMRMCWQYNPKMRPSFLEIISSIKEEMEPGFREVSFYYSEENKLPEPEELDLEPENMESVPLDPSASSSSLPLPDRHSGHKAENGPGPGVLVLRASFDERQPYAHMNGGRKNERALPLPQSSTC
200 ul of each of these was mixed rapidly with 1.8 ml of refold buffer. Refold buffer was 1.4 M urea, 100 mM glycine, 0.5 M NaCl, 19% ethanol, 0.5 mM GSSG, 4 mM GSH, pH 9.5. They were refolded at room temperature for 3 hours, and then tested in a binding assay for competition binding to IGF receptors against […] radioactive wild type IGF (Perkin Elmer, Inc.) For comparison, commercial Long-R3-IGF (LR3IGF) was also tested.

The target of test [2] is T1, type 1 IGF receptors (IGF-1R) on MCF7 cells (Homo sapiens, UniProt P08069).
T1 construct: type 1 IGF receptors that are abundant on MCF7 cells; host or cells: MCF7
T1 sequence (P08069 31-736 limits assumed): as the sequence (P08069 31-736 limits assumed) above
T1 sequence (P08069 741-1367 partner limits assumed): as the sequence (P08069 741-1367 partner limits assumed) above
Put plainly: Competition binding assay to IGF-1 receptor on MCF7 cells versus I-125-labeled IGF-1. The following applies: FIG. 1 assay. As for the experimental part:
Theory of assay: Radioactive ^125I labeled insulin-like growth factor-1 (IGF-1) competes with a test ligand for binding to type 1 IGF receptors that are abundant on MCF7 cells (a human breast cancer cell line) in vitro.
MCF7 cell media: 500 mL MEM, 0.01 mg/mL bovine insulin; 5 mL sodium pyruvate, 5 mL non-essential amino acids, 10 mL sodium bicarbonate, 10 mL fetal bovine serum, 5 mL penicillin/streptomycin.
MCF7 cells (ATCC HTB-22) were plated at 20,000 cells per well in a volume of 0.5 mL/well in a 48-well tissue culture plate (flat bottom with low evaporation lid) and placed in a cell culture incubator set at 37° C. with 5% CO2. After 2-3 days in culture the plates were washed 2× with 0.5 mL per well of cold binding assay buffer (100 mM Hepes-NaOH, pH 7.2; 120 mM NaCl; 5 mM KCl; 1.2 mM MgSO4; 0.1% BSA). After the final wash, 0.5 mL of binding assay buffer was added to each well and the plates are placed at 4° C. for 2 to 6 hours.
Test ligands were prepared at a concentration of 10 micromolar (long-R3-IGF) or 20 micromolar (765IGF and IGF-MTX) in 5 mM HCl in a volume of 200 ul. […] For long-R3, the lyophilized commercial material is dissolved at 1.0 mg/ml in 10 mM HCl and this is diluted to a concentration of 91 ug/ml for a 10 uM solution. […]
The plates were then incubated overnight at 4° C. […] Cells were lysed with 0.5 mL 300 mM NaOH, 1% SDS and the lysates were counted on a gamma counter.

In test [3] the test system is soluble IGF binding proteins. Conditions: compared to wild-type IGF-1; Francis 1992, Tomas 1993, U.S. Pat. No. 4,876,242; cited from earlier work.

The source of these data is patent US12527876B2, “Insulin-like growth factor-chemotherapeutic conjugate for treating myelodysplastic syndrome” (IGF Oncology, LLC, priority 2017, dated 2026).

B1: LR3IGF: commercial Long-R3-IGF, variant of IGF-1, SEQ ID NO: 5 (protein)
chain: MFPAMPLSSLFVNGPRTLCGALVDALQFVCGDRGFYFNKPTGYGSSSRRAPQTGIVDECCFRSCDLRRLEMYCAPLKPAKSEA
B1: the Kd in test [1] is around 1 nM; in test [2], around 3 nM. Also, the “binding affinity to the soluble IGF binding proteins” value in test [3] is reported as “reduced binding affinity”.
